In publication PMC12439037 (RSC Chemical Biology, 2025):
Ends that are not written are not given here. * marks the point of attachment. Myristoyl = CCCCCCCCCCCCCC(=O)*

Columns and labels:
Assay in all cases: crystal structure
[1] = target: T1, SIRT2^F96A (human SIRT2 residues 50–356, F96A) (human, UniProt Q8IXJ6 50-356, F96A)
T1 sequence (looked up): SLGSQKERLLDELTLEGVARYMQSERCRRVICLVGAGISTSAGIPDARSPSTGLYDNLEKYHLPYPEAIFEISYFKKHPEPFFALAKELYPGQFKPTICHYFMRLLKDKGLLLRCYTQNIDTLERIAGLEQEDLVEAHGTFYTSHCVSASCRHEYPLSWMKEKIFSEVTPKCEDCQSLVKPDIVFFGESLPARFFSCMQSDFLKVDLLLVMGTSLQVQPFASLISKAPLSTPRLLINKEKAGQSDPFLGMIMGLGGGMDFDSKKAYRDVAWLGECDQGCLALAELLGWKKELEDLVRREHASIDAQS

[2] = target: T2, human SIRT2 (residues 50–356) (human, UniProt Q8IXJ6 50-356)
T2 sequence (looked up): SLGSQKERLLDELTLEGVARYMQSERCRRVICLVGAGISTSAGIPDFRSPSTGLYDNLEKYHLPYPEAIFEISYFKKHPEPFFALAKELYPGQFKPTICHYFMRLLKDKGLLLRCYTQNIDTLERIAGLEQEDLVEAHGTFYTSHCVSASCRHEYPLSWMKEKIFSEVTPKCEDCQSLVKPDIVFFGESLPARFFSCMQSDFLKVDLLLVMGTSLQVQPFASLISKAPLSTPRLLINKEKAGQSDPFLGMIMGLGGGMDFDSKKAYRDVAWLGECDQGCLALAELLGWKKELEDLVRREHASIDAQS

[3] = target: T3, SIRT2^H187A (human SIRT2 residues 50–356, H187A) (human, UniProt Q8IXJ6 50-356, H187A)
T3 sequence (looked up): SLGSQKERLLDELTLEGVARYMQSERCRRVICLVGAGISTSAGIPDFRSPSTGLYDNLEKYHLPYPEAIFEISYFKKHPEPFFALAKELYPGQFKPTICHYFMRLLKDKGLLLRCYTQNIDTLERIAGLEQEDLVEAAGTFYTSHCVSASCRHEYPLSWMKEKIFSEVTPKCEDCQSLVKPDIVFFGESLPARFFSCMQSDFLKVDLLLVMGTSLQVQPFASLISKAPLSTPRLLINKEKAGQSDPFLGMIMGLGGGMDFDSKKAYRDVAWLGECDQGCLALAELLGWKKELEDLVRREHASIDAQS

Measured: binding result

B1: H3K18myr peptide (APRKmyrQLA) (peptide)
peptide: APRK(Myristoyl)QLA
binds: [1] | [2] | [3]
